# In PMC4949324:
# T1: C1 R1092W (ZF10-13) (mouse, UniProt A2A5K6 845-1337, R1092W)
# T1 sequence: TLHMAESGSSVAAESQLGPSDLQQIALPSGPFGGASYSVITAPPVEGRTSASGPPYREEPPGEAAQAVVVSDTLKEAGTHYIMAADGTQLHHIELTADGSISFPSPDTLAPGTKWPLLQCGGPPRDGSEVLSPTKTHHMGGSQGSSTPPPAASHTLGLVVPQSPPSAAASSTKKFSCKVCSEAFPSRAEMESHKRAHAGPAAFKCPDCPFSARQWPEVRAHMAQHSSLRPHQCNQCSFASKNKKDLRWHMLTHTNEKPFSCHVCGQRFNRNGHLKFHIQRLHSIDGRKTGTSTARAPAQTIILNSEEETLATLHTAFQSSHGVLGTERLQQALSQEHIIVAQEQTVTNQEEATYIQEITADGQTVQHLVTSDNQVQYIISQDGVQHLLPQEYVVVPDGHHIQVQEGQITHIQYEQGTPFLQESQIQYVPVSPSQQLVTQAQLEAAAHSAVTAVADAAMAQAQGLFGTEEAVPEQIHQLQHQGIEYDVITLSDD
# T2: C1 WT (ZF10-13) (mouse, UniProt A2A5K6 845-1337)
# T2 sequence: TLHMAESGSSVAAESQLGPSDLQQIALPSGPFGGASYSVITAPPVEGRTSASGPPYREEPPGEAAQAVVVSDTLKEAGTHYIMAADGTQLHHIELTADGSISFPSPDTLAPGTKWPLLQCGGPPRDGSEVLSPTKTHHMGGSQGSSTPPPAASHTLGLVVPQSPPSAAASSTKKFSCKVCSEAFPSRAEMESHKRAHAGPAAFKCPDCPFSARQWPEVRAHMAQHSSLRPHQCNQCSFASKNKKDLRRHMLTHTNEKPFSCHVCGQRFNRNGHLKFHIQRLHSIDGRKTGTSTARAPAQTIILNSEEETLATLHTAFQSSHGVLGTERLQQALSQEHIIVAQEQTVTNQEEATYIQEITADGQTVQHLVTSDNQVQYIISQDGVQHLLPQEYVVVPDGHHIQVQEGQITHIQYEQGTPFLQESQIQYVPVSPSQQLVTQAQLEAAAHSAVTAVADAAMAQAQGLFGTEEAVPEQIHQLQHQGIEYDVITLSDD
# Columns and labels:
# C1 R1092W (ZF10-13) = target: T1, C1 R1092W (ZF10-13); assay: quantitative EMSA
# C1 WT (ZF10-13) = target: T2, C1 WT (ZF10-13); assay: quantitative EMSA
binder,measurement,setting,value
A2 (dsDNA) DNA 1: AGTCCGACTCAGGACCCCGACCAAGCTG DNA 2: CAGCTTGGTCGGGGTCCTGAGTCGGACT,Kd,C1 R1092W (ZF10-13),1410 ± 117 nM
same,Kd,C1 WT (ZF10-13),73.4 ± 7.1 nM
